Non-standard residues stand in square brackets, D forms with d. No end group written: not given here. pS = N[C@@H](COP(=O)(O)O)C(=O)O
Biological target: T1, Phosphopeptide TF1-Pser258 CKEN(pS)PLNVS (human)
T1 construct: Synthetic phosphopeptide
T1 peptide: CKEN[pS]PLNVS
Experiment: peptide ELISA, optical density (FIG. 7)

binding result: no binding
B1: hybrid IgG2b anti-TF2-Pser253 monoclonal antibody MAb 680 (antibody, V domains shown)
VH: DVQLQESGPGLVKPSQSLSLTCTVTGYSITSDYAWNWIRQFPGNKLEWMGYISYSGSTSYNPSLKSRISITRDTSKNQFFLQLNSVTTEDTATYYCARIRGYLAMDYWGQGTSVTVSS
VL: DIVMTQAAFSNPVTLGTSASISCRSSKSLLHSNGITYLYWYLQKPGQSPQLLIYQMSNLASGVPDRFSSSGSGTDFTLRISRVEAEDVGVYYCAQNLELPPTFGGGTKLEIKR
notes: The Fab portion of IgM clone 4A6-4B5-1E2 was fused onto murine IgG2b light and heavy chains and made in HEK cells; also called M680; hybrid IgG anti-TF2-pser253 M680

Source: US20190004052A1 (published 2019)
